Laboratory results reported in patent US20040254135, “Modulation of metabolism of steroids and xenobiotics” (published 2004).

Key:
CAR:RXR heterodimer = CAR:RXR heterodimer (UniProt Q14994;P19793 Q14994:1-352,P19793:1-462); assay: EMSA
SXR:RXR heterodimer = SXR:RXR heterodimer (UniProt O75469;P19793 O75469:1-434,P19793:1-462); assay: EMSA
Sequence of SXR:RXR heterodimer (O75469 whole entry, chain 1 of 2): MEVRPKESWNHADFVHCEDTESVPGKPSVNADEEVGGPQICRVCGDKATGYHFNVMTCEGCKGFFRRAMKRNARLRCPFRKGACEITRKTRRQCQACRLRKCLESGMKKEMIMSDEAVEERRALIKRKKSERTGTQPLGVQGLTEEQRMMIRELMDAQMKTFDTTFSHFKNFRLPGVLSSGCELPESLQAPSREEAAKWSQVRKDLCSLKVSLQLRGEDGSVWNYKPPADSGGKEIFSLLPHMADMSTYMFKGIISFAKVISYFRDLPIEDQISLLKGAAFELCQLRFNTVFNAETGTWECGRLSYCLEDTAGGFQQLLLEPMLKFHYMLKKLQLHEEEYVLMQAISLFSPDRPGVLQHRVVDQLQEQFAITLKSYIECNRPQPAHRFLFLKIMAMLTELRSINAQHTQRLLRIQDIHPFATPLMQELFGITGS
Sequence of SXR:RXR heterodimer (P19793 whole entry, chain 2 of 2): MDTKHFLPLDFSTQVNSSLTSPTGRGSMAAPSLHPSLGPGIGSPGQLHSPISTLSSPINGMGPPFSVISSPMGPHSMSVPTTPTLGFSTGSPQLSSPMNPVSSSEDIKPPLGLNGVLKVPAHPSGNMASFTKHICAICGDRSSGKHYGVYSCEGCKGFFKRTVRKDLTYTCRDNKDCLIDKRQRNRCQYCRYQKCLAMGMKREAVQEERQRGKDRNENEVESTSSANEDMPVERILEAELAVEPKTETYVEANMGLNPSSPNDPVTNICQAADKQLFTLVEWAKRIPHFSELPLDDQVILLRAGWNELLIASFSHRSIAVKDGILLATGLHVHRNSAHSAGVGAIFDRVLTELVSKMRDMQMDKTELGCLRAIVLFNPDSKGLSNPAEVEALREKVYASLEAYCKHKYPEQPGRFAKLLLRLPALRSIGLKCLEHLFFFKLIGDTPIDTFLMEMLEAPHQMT

Sequence of CAR:RXR heterodimer (Q14994 whole entry, chain 1 of 2): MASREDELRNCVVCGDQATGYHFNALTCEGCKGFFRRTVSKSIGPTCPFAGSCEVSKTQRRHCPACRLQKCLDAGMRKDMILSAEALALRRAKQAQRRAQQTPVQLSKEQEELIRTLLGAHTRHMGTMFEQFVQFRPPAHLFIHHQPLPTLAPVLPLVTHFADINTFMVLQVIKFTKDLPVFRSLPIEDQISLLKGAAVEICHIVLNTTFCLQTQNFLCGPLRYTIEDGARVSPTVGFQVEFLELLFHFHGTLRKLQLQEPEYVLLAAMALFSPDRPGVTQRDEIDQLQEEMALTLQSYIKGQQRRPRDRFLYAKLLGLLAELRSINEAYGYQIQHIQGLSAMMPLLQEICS
Sequence of CAR:RXR heterodimer (P19793 whole entry, chain 2 of 2): as the sequence (P19793 whole entry, chain 2 of 2) above

B1: UGT1A6 DR-3 (dsDNA)
DNA 1: ACTGTAGTTCATAAAGTTCACATGG
DNA 2: CCATGTGAACTTTATGAACTACAGT
CAR:RXR heterodimer
  binding result: binds
SXR:RXR heterodimer
  binding result: binds
